Target: 2aba_human PPP2R2A (UniProt P63151)
Sequence of UniProt P63151 (P63151 whole entry): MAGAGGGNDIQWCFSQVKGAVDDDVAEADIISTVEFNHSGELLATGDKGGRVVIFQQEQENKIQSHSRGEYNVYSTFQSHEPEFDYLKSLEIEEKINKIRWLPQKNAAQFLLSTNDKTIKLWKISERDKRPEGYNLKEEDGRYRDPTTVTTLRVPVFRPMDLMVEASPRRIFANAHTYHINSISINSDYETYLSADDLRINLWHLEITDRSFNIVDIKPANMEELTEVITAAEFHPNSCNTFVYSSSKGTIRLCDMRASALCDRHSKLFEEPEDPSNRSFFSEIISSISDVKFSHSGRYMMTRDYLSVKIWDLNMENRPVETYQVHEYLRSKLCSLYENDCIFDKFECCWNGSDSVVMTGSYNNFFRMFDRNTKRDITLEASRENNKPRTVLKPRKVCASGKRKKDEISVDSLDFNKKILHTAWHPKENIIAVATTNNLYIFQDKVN

effect of a mutation on the interaction: with no effect
Substance: Leucine-rich repeat serine/threonine-protein kinase 2 (Homo sapiens), Q5S007 R1441C

Source: IntAct's records for PubMed 26894577
